Source: paper PMC8655031, “Loss of peptidase D binding restores the tumor suppressor functions of oncogenic p53 mutants” (Communications Biology, 2021)

Tests used:
[1] = molecular target: T1, recombinant human p53, N-terminal His tagged (human, UniProt P04637 1-393); assay: cross-linking; PEPD (801 nM) and p53 or p53^R175H (114 nM), alone or together, in PBS pH 7.4 for 15 min at RT, then 2 mM BS3 for 30 min at RT; WB on 5% SDS-PAGE; details: both partners purified
T1 construct: human p53 from pET15b-His-human p53; also called His-human p53; source: E. coli BL21-AI, purified (Ni-NTA)

[2] = molecular target: the molecule itself; assay: as above

stoichiometry N [1]: 1 PEPD dimer per p53 tetramer
B1: recombinant human PEPD (peptidase D), C-terminal His tagged (enzyme, UniProt P12955 1-493, looked up)
chain: MAAATGPSFWLGNETLKVPLALFALNRQRLCERLRKNPAVQAGSIVVLQGGEETQRYCTDTGVLFRQESFFHWAFGVTEPGCYGVIDVDTGKSTLFVPRLPASHATWMGKIHSKEHFKEKYAVDDVQYVDEIASVLTSQKPSVLLTLRGVNTDSGSVCREASFDGISKFEVNNTILHPEIVECRVFKTDMELEVLRYTNKISSEAHREVMKAVKVGMKEYELESLFEHYCYSRGGMRHSSYTCICGSGENSAVLHYGHAGAPNDRTIQNGDMCLFDMGGEYYCFASDITCSFPANGKFTADQKAVYEAVLRSSRAVMGAMKPGVWWPDMHRLADRIHLEELAHMGILSGSVDAMVQAHLGAVFMPHGLGHFLGIDVHDVGGYPEGVERIDEPGLRSLRTARHLQPGMVLTVEPGIYFIDHLLDEALADPARASFLNREVLQRFRGFGGVRIEEDVVVTDSGIELLTCVPRTVEEIEACMAGCDKAFTPFSGPK
notes: human peptidase D (PEPD, prolidase), from pBAD/TOPO-human PEPD-His; the discussion speaks of PEPD as 493 aa; also called prolidase; PEPD-His; source: E. coli One Shot TOP10, purified (Ni-NTA)
stoichiometry N [2]: 2
